Assay results published in the Immune Epitope Database (IEDB).

Tests used:
HLA-A*01:01 = assay: IEDB peptide-MHC binding, purified MHC/competitive/fluorescence; filed as Kd, often an IC50 or EC50 that approximates it; ≥ and ≤ were set here for values at or beyond the usual limits of such assays
HLA-A*29:02 [1] = assay: as above
HLA-A*02:01 [2] = assay: IEDB peptide-MHC binding, purified MHC/competitive/radioactivity; filed as Kd, often an IC50 or EC50 that approximates it; ≥ and ≤ were set here for values at or beyond the usual limits of such assays
HLA-A*02:17 = assay: as above
HLA-A*32:01 = assay: as above; settings: source organism: Dengue virus 1 Brazil/97-11/1997
HLA-A*23:01 [3] = assay: as above; settings: source organism: Vaccinia virus WR
HLA-A*24:02 = assay: as above; settings: source organism: Vaccinia virus WR
HLA-B*27:03 = assay: IEDB peptide-MHC binding, purified MHC/competitive/fluorescence; filed as Kd, often an IC50 or EC50 that approximates it; ≥ and ≤ were set here for values at or beyond the usual limits of such assays
HLA-B*46:01 = assay: as above
HLA-A*26:01 [4] = assay: as above
HLA-B*51:01 = assay: as above
HLA-B*15:01 = assay: as above; settings: source organism: Orthohantavirus tulaense
HLA-B*18:01 = assay: as above
HLA-B*39:01 = assay: as above
HLA-B*57:01 [5] = assay: as above
HLA-A*29:02 [6] = assay: IEDB peptide-MHC binding, purified MHC/direct/fluorescence; filed as Kd, often an IC50 or EC50 that approximates it; ≥ and ≤ were set here for values at or beyond the usual limits of such assays
HLA-A*02:11 = assay: as above
HLA-A*02:19 = assay: as above
HLA-A*02:16 = assay: as above
HLA-A*03:01 = assay: as above
HLA-B*40:01 = assay: as above; settings: source organism: Orthohantavirus puumalaense
HLA-A*02:12 = assay: as above
HLA-A*24:03 [7] = assay: as above
HLA-A*02:03 [8] = assay: as above
HLA-A*02:03 [9] = assay: IEDB peptide-MHC binding, purified MHC/competitive/radioactivity; filed as Kd, often an IC50 or EC50 that approximates it; ≥ and ≤ were set here for values at or beyond the usual limits of such assays
HLA-A*02:01 [10] = assay: IEDB peptide-MHC binding, purified MHC/competitive/fluorescence; filed as Kd, often an IC50 or EC50 that approximates it; ≥ and ≤ were set here for values at or beyond the usual limits of such assays; settings: source organism: Orthohantavirus andesense
HLA-A*68:02 [11] = assay: IEDB peptide-MHC binding, purified MHC/direct/fluorescence; filed as Kd, often an IC50 or EC50 that approximates it; ≥ and ≤ were set here for values at or beyond the usual limits of such assays; settings: source organism: Orthohantavirus andesense
HLA-A*23:01 [12] = assay: as above; settings: source organism: Orthohantavirus andesense
HLA-A*26:01 [13] = assay: as above; settings: source organism: Orthohantavirus andesense
HLA-A*02:06 = assay: IEDB peptide-MHC binding, purified MHC/competitive/radioactivity; filed as Kd, often an IC50 or EC50 that approximates it; ≥ and ≤ were set here for values at or beyond the usual limits of such assays
HLA-B*57:01 [14] = assay: as above
HLA-B*53:01 = assay: as above; settings: source organism: Dengue virus 1 Brazil/97-11/1997
HLA-A*68:02 [15] = assay: as above; settings: source organism: Dengue virus 1 Brazil/97-11/1997
HLA-A*24:03 [16] = assay: IEDB peptide-MHC binding, purified MHC/competitive/fluorescence; filed as Kd, often an IC50 or EC50 that approximates it; ≥ and ≤ were set here for values at or beyond the usual limits of such assays
HLA-A*69:01 = assay: as above; settings: source organism: Orthohantavirus andesense
HLA-A*68:02 [17] = assay: as above; settings: source organism: Rickettsia sibirica 246
[18] = source organism: Dengue virus 1 Singapore/S275/1990
[19] = source organism: Orthohantavirus tulaense
[20] = source organism: Dengue virus 1 Brazil/97-11/1997
[21] = source organism: Orthohantavirus andesense
[22] = source organism: Dengue virus 2 Jamaica/1409/1983
[23] = source organism: Dengue virus 2 Thailand/NGS-C/1944
[24] = source organism: Dengue virus 2 Peru/IQT2913/1996
[25] = source organism: Dengue virus 3 China/80-2/1980
[26] = source organism: Dengue virus 3 Martinique/1243/1999

QVSRPMFLY was tested, and the Kd (HLA-A*01:01; source organism: Influenza A virus (A/X-31(H3N2))) was ≥ 20000 nM.

SWNNHSYLY was tested, and the Kd (HLA-A*29:02 [1]; source organism: Mus musculus) was ≤ 0.1 nM and the Kd (HLA-A*01:01; source organism: Mus musculus) was 4280 nM.

In the case of LMLVAHYAI, the Kd (HLA-A*02:01 [2]; [18]) is reported as 6.46 nM, the Kd (HLA-A*02:17; [18]) is reported as 15.8 nM and the Kd (HLA-A*32:01) is reported as 5.57 nM.

For VTDTNKFDNY, the Kd (HLA-A*01:01; source organism: Vaccinia virus WR) was 4.9 nM, the Kd (HLA-A*23:01 [3]) was ≥ 70000 nM and the Kd (HLA-A*24:02) was ≥ 70300 nM.

Sequence AWISSMLLY has a Kd (HLA-A*29:02 [1]; source organism: Brucella suis ATCC 23445) of 0.2 nM.

AESICSYWL was tested, and the Kd (HLA-B*27:03; [19]) was ≥ 20000 nM, the Kd (HLA-B*46:01; [19]) was ≥ 20000 nM and the Kd (HLA-A*26:01 [4]; [19]) was ≥ 20000 nM. The Kd (HLA-B*51:01; [19]) was ≥ 20000 nM, the Kd (HLA-B*15:01) was ≥ 20000 nM and the Kd (HLA-B*18:01; [19]) was ≥ 20000 nM. The Kd (HLA-B*39:01; [19]) was ≥ 20000 nM, the Kd (HLA-B*57:01 [5]; [19]) was ≥ 20000 nM and the Kd (HLA-A*29:02 [6]; [19]) was ≥ 20000 nM. For the same sequence, the Kd (HLA-A*02:11; [19]) was ≥ 20000 nM, the Kd (HLA-A*02:19; [19]) was ≥ 20000 nM and the Kd (HLA-A*02:16; [19]) was ≥ 20000 nM. For the same sequence, the Kd (HLA-A*03:01; [19]) was ≥ 20000 nM, the Kd (HLA-B*40:01) was 0.3 nM and the Kd (HLA-A*02:12; [19]) was ≥ 20000 nM. For the same sequence, the Kd (HLA-A*24:03 [7]; [19]) was ≥ 20000 nM and the Kd (HLA-A*02:03 [8]; [19]) was ≥ 20000 nM.

Sequence LLATSIFKL has a Kd (HLA-A*02:01 [2]; [18]) of 5 nM, a Kd (HLA-A*02:17; [18]) of 22.7 nM and a Kd (HLA-A*02:03 [9]; [20]) of 14.3 nM.

With EVLKAMSLY the Kd (HLA-B*27:03; [21]) was ≥ 20000 nM, the Kd (HLA-A*02:01 [10]) was ≥ 20000 nM and the Kd (HLA-B*46:01; [21]) was ≥ 20000 nM. The Kd (HLA-B*51:01; [21]) was ≥ 20000 nM, the Kd (HLA-B*39:01; [21]) was ≥ 20000 nM and the Kd (HLA-B*57:01 [5]; [21]) was ≥ 20000 nM. For the same sequence, the Kd (HLA-A*02:11; [21]) was ≥ 20000 nM, the Kd (HLA-A*68:02 [11]) was ≥ 20000 nM and the Kd (HLA-A*02:19; [21]) was ≥ 20000 nM. For the same sequence, the Kd (HLA-A*23:01 [12]) was ≥ 20000 nM, the Kd (HLA-A*03:01; [21]) was ≥ 20000 nM and the Kd (HLA-A*26:01 [13]) was 3.9 nM. For the same sequence, the Kd (HLA-A*02:12; [21]) was ≥ 20000 nM, the Kd (HLA-A*24:03 [7]; [21]) was ≥ 20000 nM and the Kd (HLA-A*02:03 [8]; [21]) was ≥ 20000 nM.

With QFLAPDDRY the Kd (HLA-A*29:02 [1]; source organism: Vibrio cholerae 2740-80) was 3.2 nM.

VLNPYMPSV showed a Kd (HLA-A*02:01 [2]; [22]) of 1.38 nM, a Kd (HLA-A*02:17; [22]) of 8.12 nM and a Kd (HLA-A*02:06; [22]) of 6.19 nM. It also gave a Kd (HLA-A*02:03 [9]; [22]) of 6.6 nM.

For LTMDREMLY, the Kd (HLA-A*01:01; source organism: Bacillus cereus G9241) was 5.1 nM.

Sequence MIIMLIPTV has a Kd (HLA-A*02:01 [2]; [23]) of 3.89 nM, a Kd (HLA-A*02:17; [23]) of 0.634 nM and a Kd (HLA-A*02:06; [24]) of 7.5 nM. It also gave a Kd (HLA-A*02:03 [9]; [24]) of 4.4 nM.

NTSMAMTCIA was tested, and the Kd (HLA-B*57:01 [14]; source organism: Dengue virus 4 Philippines/H241/1956) was 11700 nM.

For GIMTIDLDPV, the Kd (HLA-A*02:01 [2]; [25]) was 11.7 nM, the Kd (HLA-A*02:17; [25]) was 2080 nM and the Kd (HLA-A*02:06; [26]) was 83 nM. For the same sequence, the Kd (HLA-A*02:03 [9]; [26]) was 25.2 nM.

EAVEDERFW gave a Kd (HLA-B*53:01) of 80.8 nM and a Kd (HLA-B*57:01 [14]; [20]) of 84.5 nM.

In the case of GTSHNILVEV, the Kd (HLA-A*68:02 [15]) is reported as 15 nM and the Kd (HLA-B*57:01 [14]; [20]) is reported as 758 nM.

LLMLLPTALA gave a Kd (HLA-A*02:01 [2]; [18]) of 128 nM, a Kd (HLA-A*02:17; [18]) of 5210 nM and a Kd (HLA-A*02:03 [9]; [20]) of 49.9 nM.

For AVSMANIFRG, the Kd (HLA-B*57:01 [14]; [22]) was 37.2 nM.

Work on PYKIPATVI yielded a Kd (HLA-A*24:03 [16]; source organism: Escherichia coli 536) of 1060 nM.

For DWMDRIEEF, the Kd (HLA-B*27:03; [21]) was ≥ 20000 nM, the Kd (HLA-A*02:01 [10]) was ≥ 20000 nM and the Kd (HLA-B*46:01; [21]) was ≥ 20000 nM. For the same sequence, the Kd (HLA-A*69:01) was ≥ 20000 nM, the Kd (HLA-A*26:01 [4]; [21]) was ≥ 20000 nM and the Kd (HLA-B*51:01; [21]) was ≥ 20000 nM. The Kd (HLA-B*18:01; [21]) was ≥ 20000 nM, the Kd (HLA-A*24:03 [16]; [21]) was 156 nM and the Kd (HLA-B*39:01; [21]) was ≥ 20000 nM. The Kd (HLA-B*57:01 [5]; [21]) was ≥ 20000 nM, the Kd (HLA-A*29:02 [6]; source organism: Maporal virus) was ≥ 20000 nM and the Kd (HLA-A*02:11; source organism: Maporal virus) was ≥ 20000 nM. The Kd (HLA-A*02:19; source organism: Maporal virus) was ≥ 20000 nM, the Kd (HLA-A*02:16; source organism: Maporal virus) was ≥ 20000 nM and the Kd (HLA-A*03:01; source organism: Maporal virus) was ≥ 20000 nM. The Kd (HLA-A*02:12; source organism: Maporal virus) was ≥ 20000 nM and the Kd (HLA-A*02:03 [8]; source organism: Maporal virus) was ≥ 20000 nM.

For LNRPDIGLY, the Kd (HLA-A*29:02 [1]; source organism: Campylobacter jejuni) was 306 nM.

With VMLLVLCAV the Kd (HLA-A*02:01 [2]; [25]) was 14.7 nM, the Kd (HLA-A*02:17; [25]) was ≥ 28700 nM and the Kd (HLA-A*02:06; [26]) was 12.4 nM. It also gave a Kd (HLA-A*02:03 [9]; [26]) of 775 nM.

Sequence FIHFDHVPI has a Kd (HLA-A*68:02 [17]) of 24.7 nM.

In the case of APKDLLPWY, the Kd (HLA-A*29:02 [1]; source organism: Bacillus anthracis str. A0488) is reported as 2540 nM.

In the case of KFGPYVSDY, the Kd (HLA-A*29:02 [1]; source organism: Yersinia pseudotuberculosis IP 31758) is reported as 110 nM.
